According to PMC4883780:

Experiments:
[1] = biological target: human vascular endothelial growth factor 165 (hVEGF), E. coli-derived, after tag cleavage (human); test: SEC; SEC-HPLC, Protein-pak 300SW SEC 7.5 x 300 mm column, 1X PBS pH 7.4, room temperature, 1 mL/min, detection at 280 nm; peaks checked on non-reducing SDS-PAGE
[2] = biological target: human vascular endothelial growth factor 165 (hVEGF), E. coli-derived, after tag cleavage (human); test: non-reducing SDS-PAGE; purified hVEGF in sample buffer with SDS, without DTT (non-reducing) against with 100 mM DTT (reducing), tricine SDS-PAGE, Coomassie stain; shows disulfide-linked forms

“human vascular endothelial growth factor 165 (hVEGF), E. coli-derived, after tag cleavage (ligand)” was tested, and the stoichiometry N [1] was 2 and the stoichiometry N [2] was 2.
